# Data: paper PMC8567202, “Phosphoinositide-binding activity of Smad2 is essential for its function in TGF-β signaling” (The Journal of Biological Chemistry, 2021)
# Key:
# [1] = system: Smad2 transcriptional activity; test: Dual luciferase reporter assay for Smad2 transcriptional activity; assay type: cell-based; conditions: Smad2-suppressed HeLa cells, luciferase, 10 ng/ml TGF-β for 48 h
# Description: (§1) Two separate gels were used to accommodate all mutants. An empty vector transfection (vehicle) was used for a negative control for each gel. Glyceraldehyde 3-phosphate dehydrogenase (GAPDH) was used as a gel loading control. Data in A and B are quantified in Fig. S3A. C, TGF-β stimulated (10 ng/ml for 1 h) nuclear translocation of mouse EGFP-WT, -K420A, -W422A, -E425K, -Y426A, and -R427A/R428A transfected into HeLa cells whose endogenous Smad2 was suppressed by siRNA. For Smad2-WT, the effect of PI(4,5)P2 depletion was measured. Arrows indicate nuclear accumulation of EGFP-WT and EGFP-E425K. Scale bars indicate 10 μm. D, quantification of (C). (Inuc/Icyto) was calculated from total nuclear and cytosolic fluorescence intensity values. Blank and black bars indicate values before and after TGF-β stimulation. Error bars indicate S.D. values from >3 measurements (n = 10). E, Smad2 transcriptional activity measured by the luciferase assay. Blank and black bars indicate values before and after TGF-β stimulation. Error bars indicate S.D. values from >3 measurements (n = 10).
# HeLa cells were plated on 6-well plates at the density of ∼1.5 × 10^5 and treated with siRNA as described above. The reporter gene containing three TGF-β/activin response element (ARE) coupled with the luciferase gene (pGL2 3ARE-Lux: Addgene) was used for enhanced activity ([55]). On translocation into the nucleus, receptor-activated Smad2 associates with the DNA-binding protein FAST1 to form a transcriptional complex on the ARE of the Mix.2 promoter. After 24 h, the cell media were replaced with fresh media and cells were cotransfected with 375 ng pGL2 3ARE-Lux experimental vector, 37.5 ng pGL4.73[hRluc/SV40] internal control vector (Promega), 337.5 ng FAST1, and 750 ng of pcDNA 3.1 plasmid harboring Smad2 WT or mutant using the jetPRIME transfection system (Polyplus transfection) according to the manufacturer's protocols. After 24 h of transfection, cells were placed in fresh media and stimulated with 10 ng/ml TGF-β for 48 h. Then the cells were washed with phosphate buffer saline, and the dual luciferase reporter assay was performed according to the manufacturer's protocols (Promega). All 3ARE-Luc activity values were normalized using the pGL4.73[hRluc/SV40] values as a reference.
# HeLa cells = test: Smad2 phosphorylation (pS465/pS467), Western blot; assay type: cell-based; conditions: Smad2-depleted HeLa cells, 10 ng/ml TGF-β, 48 h
# Description: as §1
# HeLa cells were plated on 6-well or 48-well plates at the density of ∼1.5 × 10^5 or 1.25 × 10^4 for 24 h and 30 nM human Smad2 (or SARA) DsiRNAs (IDT: see sequences below) were transfected into cells using the jetPRIME system (Polyplus transfection) according to the manufacturer's protocols. After transfection with siRNA for 24 h, the medium was exchanged with a fresh one and cells were transfected again with 1 μg/ml of the mouse Smad2 expression vector. In total, 24 to 48 h after transfection, cells were used for further treatment or Western blot analysis. The sequences of DsiRNAs are as follows: SMAD2-siRNA1 (sense: 5′-[…]-3′; antisense: 5′-[…]-3′); SMAD2-siRNA2 (sense: 5′-[…]-3′; antisense: 5′-[…]-3′); SMAD2-siRNA3 (sense: 5′-[…]-3′; antisense: 5′-[…]-3′); SARA-siRNA1 (sense: 5′-[…]-3′; antisense: 5′-[…]-3′); SARA-siRNA2 (sense: 5′-[…]-3′; antisense: 5′-[…]-3′).
# Transfected cells or treated cells were lysed in the cell lysis buffer (20 mM Tris-HCl, pH 7.5, containing 150 mM NaCl, 1 mM Na2EDTA, 1 mM EGTA, 1% Triton-X, protease inhibitors, and phosphatase inhibitors) (1 mM Na3VO4, 1 mM NaF, 1 μg/ml leupeptin, 1 mM phenylmethanesulfonylfluoride, 1.5 mM benzamidine, and 2 μg/ml pepstatin). The total protein concentration of the cell lysate was determined by the Pierce BCA protein assay kit (Thermo scientific). The same amounts of proteins were loaded onto a polyacrylamide gel to run sodium dodecyl sulfate–polyacrylamide gel electrophoresis. Proteins were separated and transferred to a polyvinylidene difluoride membrane. The membrane was blocked with 5% bovine serum albumin for 1 h and incubated overnight at 4 °C with various antibodies (1:1000 dilution for all antibodies). After the unbound antibodies were removed by washing with 0.1% Tris buffer saline with 0.1% Tween20, the membranes were incubated with the horseradish peroxidase secondary antibody (1:5000 dilution) for 1 h at room temperature. The membranes were washed three more times with 0.1% Tris buffer saline with 0.1% Tween20 to remove the unbound horseradish peroxidase secondary antibody before imaging. The chemiluminescence intensity of protein bands in the gel was analyzed and documented by the Azure 500Q Imaging System.
Molecule,Smad2 transcriptional activity after TGF-β stimulation [1],Smad2 phosphorylation after TGF-β stimulation (HeLa cells)
"Smad2-W422A: W422A mutant of full-length Smad2; specific PI(4,5)P2 binding-compromised (protein, left off: His6, N-terminal, state not stated) MSSILPFTPPVVKRLLGWKKSAGGSGGAGGGEQNGQEEKWCEKAVKSLVKKLKKTGRLDELEKAITTQNCNTKCVTIPSTCSEIWGLSTANTVDQWDTTGLYSFSEQTRSLDGRLQVSHRKGLPHVIYCRLWRWPDLHSHHELKAIENCEYAFNLKKDEVCVNPYHYQRVETPVLPPVLVPRHTEILTELPPLDDYTHSIPENTNFPAGIEPQSNYIPETPPPGYISEDGETSDQQLNQSMDTGSPAELSPTTLSPVNHSLDLQPVTYSEPAFWCSIAYYELNQRVGETFHASQPSLTVDGFTDPSNSERFCLGLLSNVNRNATVEMTRRHIGRGVRLYYIGGEVFAECLSDSAIFVQSPNCNQRYGWHPATVCKIPPGCNLKIFNNQEFAALLAQSVNQGFEAVYQLTRMCTIRMSFVKGAGAEYRRQTVTSTPCWIELHLNGPLQWLDKVLTQMGSPSVRCSSMS",much reduced activity even after TGF-β stimulation,minimally phosphorylated
"Smad2-E425K: charge-reversal mutant of full-length Smad2; PI(4,5)P2 and TβRI binding-enhanced (protein, left off: His6, N-terminal, state not stated) MSSILPFTPPVVKRLLGWKKSAGGSGGAGGGEQNGQEEKWCEKAVKSLVKKLKKTGRLDELEKAITTQNCNTKCVTIPSTCSEIWGLSTANTVDQWDTTGLYSFSEQTRSLDGRLQVSHRKGLPHVIYCRLWRWPDLHSHHELKAIENCEYAFNLKKDEVCVNPYHYQRVETPVLPPVLVPRHTEILTELPPLDDYTHSIPENTNFPAGIEPQSNYIPETPPPGYISEDGETSDQQLNQSMDTGSPAELSPTTLSPVNHSLDLQPVTYSEPAFWCSIAYYELNQRVGETFHASQPSLTVDGFTDPSNSERFCLGLLSNVNRNATVEMTRRHIGRGVRLYYIGGEVFAECLSDSAIFVQSPNCNQRYGWHPATVCKIPPGCNLKIFNNQEFAALLAQSVNQGFEAVYQLTRMCTIRMSFVKGWGAKYRRQTVTSTPCWIELHLNGPLQWLDKVLTQMGSPSVRCSSMS",higher transcriptional activity than exogeneous Smad2 WT,phosphorylated to a larger extent than WT
"Smad2-K420A: K420A mutant of full-length Smad2; predominantly TβRI binding-compromised (protein, left off: His6, N-terminal, state not stated) MSSILPFTPPVVKRLLGWKKSAGGSGGAGGGEQNGQEEKWCEKAVKSLVKKLKKTGRLDELEKAITTQNCNTKCVTIPSTCSEIWGLSTANTVDQWDTTGLYSFSEQTRSLDGRLQVSHRKGLPHVIYCRLWRWPDLHSHHELKAIENCEYAFNLKKDEVCVNPYHYQRVETPVLPPVLVPRHTEILTELPPLDDYTHSIPENTNFPAGIEPQSNYIPETPPPGYISEDGETSDQQLNQSMDTGSPAELSPTTLSPVNHSLDLQPVTYSEPAFWCSIAYYELNQRVGETFHASQPSLTVDGFTDPSNSERFCLGLLSNVNRNATVEMTRRHIGRGVRLYYIGGEVFAECLSDSAIFVQSPNCNQRYGWHPATVCKIPPGCNLKIFNNQEFAALLAQSVNQGFEAVYQLTRMCTIRMSFVAGWGAEYRRQTVTSTPCWIELHLNGPLQWLDKVLTQMGSPSVRCSSMS",much reduced activity even after TGF-β stimulation,little phosphorylation after TGF-β stimulation
"Smad2- R427A/R428A: double mutant of full-length Smad2; PI(4,5)P2 and TβRI binding-compromised (protein, left off: His6, N-terminal, state not stated) MSSILPFTPPVVKRLLGWKKSAGGSGGAGGGEQNGQEEKWCEKAVKSLVKKLKKTGRLDELEKAITTQNCNTKCVTIPSTCSEIWGLSTANTVDQWDTTGLYSFSEQTRSLDGRLQVSHRKGLPHVIYCRLWRWPDLHSHHELKAIENCEYAFNLKKDEVCVNPYHYQRVETPVLPPVLVPRHTEILTELPPLDDYTHSIPENTNFPAGIEPQSNYIPETPPPGYISEDGETSDQQLNQSMDTGSPAELSPTTLSPVNHSLDLQPVTYSEPAFWCSIAYYELNQRVGETFHASQPSLTVDGFTDPSNSERFCLGLLSNVNRNATVEMTRRHIGRGVRLYYIGGEVFAECLSDSAIFVQSPNCNQRYGWHPATVCKIPPGCNLKIFNNQEFAALLAQSVNQGFEAVYQLTRMCTIRMSFVKGWGAEYAAQTVTSTPCWIELHLNGPLQWLDKVLTQMGSPSVRCSSMS",much reduced activity even after TGF-β stimulation,minimally phosphorylated
"Smad2-Y426A: Y426A mutant of full-length Smad2; specific PI(4,5)P2 binding-compromised (protein, left off: His6, N-terminal, state not stated) MSSILPFTPPVVKRLLGWKKSAGGSGGAGGGEQNGQEEKWCEKAVKSLVKKLKKTGRLDELEKAITTQNCNTKCVTIPSTCSEIWGLSTANTVDQWDTTGLYSFSEQTRSLDGRLQVSHRKGLPHVIYCRLWRWPDLHSHHELKAIENCEYAFNLKKDEVCVNPYHYQRVETPVLPPVLVPRHTEILTELPPLDDYTHSIPENTNFPAGIEPQSNYIPETPPPGYISEDGETSDQQLNQSMDTGSPAELSPTTLSPVNHSLDLQPVTYSEPAFWCSIAYYELNQRVGETFHASQPSLTVDGFTDPSNSERFCLGLLSNVNRNATVEMTRRHIGRGVRLYYIGGEVFAECLSDSAIFVQSPNCNQRYGWHPATVCKIPPGCNLKIFNNQEFAALLAQSVNQGFEAVYQLTRMCTIRMSFVKGWGAEARRQTVTSTPCWIELHLNGPLQWLDKVLTQMGSPSVRCSSMS",much reduced activity even after TGF-β stimulation,minimally phosphorylated
"EGFP-Smad2 WT: mouse EGFP-Smad2 wild type transfected into HeLa cells (protein, UniProt Q62432 2-467, looked up, EGFP fusion, mouse EGFP-Smad2 wild type transfected into HeLa cells) Mothers against …: SSILPFTPPVVKRLLGWKKSAGGSGGAGGGEQNGQEEKWCEKAVKSLVKKLKKTGRLDELEKAITTQNCNTKCVTIPSTCSEIWGLSTANTVDQWDTTGLYSFSEQTRSLDGRLQVSHRKGLPHVIYCRLWRWPDLHSHHELKAIENCEYAFNLKKDEVCVNPYHYQRVETPVLPPVLVPRHTEILTELPPLDDYTHSIPENTNFPAGIEPQSNYIPETPPPGYISEDGETSDQQLNQSMDTGSPAELSPTTLSPVNHSLDLQPVTYSEPAFWCSIAYYELNQRVGETFHASQPSLTVDGFTDPSNSERFCLGLLSNVNRNATVEMTRRHIGRGVRLYYIGGEVFAECLSDSAIFVQSPNCNQRYGWHPATVCKIPPGCNLKIFNNQEFAALLAQSVNQGFEAVYQLTRMCTIRMSFVKGWGAEYRRQTVTSTPCWIELHLNGPLQWLDKVLTQMGSPSVRCSSMS",–,fully restored after TGF-β stimulation
